Results on 9 molecules are retold here after patent US20220025021A1 (BETH ISRAEL DEACONESS MEDICAL CENTER, published 2022).

What all share (assay): cell-based or functional assay
Experiment [1] has as its target HIV-1 envelope glycoprotein of pseudovirus SC422661.8 (HIV-1).
For experiment [2], the target named is HIV-1 envelope glycoprotein of pseudovirus RHPA4259.7 (HIV-1).
Experiment [3] has as its target HIV-1 envelope glycoprotein of pseudovirus DU172.17 (HIV-1).
For experiment [4], the target named is HIV-1 envelope glycoprotein of pseudovirus BB1012-11.TC21 (HIV-1).
Experiment [5] concerns the target HIV-1 envelope glycoprotein of pseudovirus CNE52 (HIV-1).
For experiment [6], the target named is HIV-1 envelope glycoprotein of pseudovirus 0260.v5.c36 (HIV-1).

B1: MS-114 (antibody)
VH: not shown
VL: DIVLTQSPLSLSVTPGEPASISCKSSHSLIHGDRNNYLAWYVQKPGRSPQLLIYLASSRASGVPDRFSGSGSDKDFTLKISRVEAEDVGTYYCMQGRESPWTFGQGTKVDIKRTVAAPSVFIFPPSDEQLKSGTASVVCLLNNFYPREAKVQWKVDNALQSGNSQESVTEQDSKDSTYSLSSTLTLSKADYEKHKVYACEVTHQGLSSPVTKSFNRGEC
Consider B1, for which the “IC50 (neutralization in TZM.bl cells)” value in experiment [1] is 0.236 mg/L; in experiment [2], 0.237 mg/L; in experiment [3], 1.66 mg/L; in experiment [4] it was 0.033 mg/L; in experiment [5], 0.444 mg/L; in experiment [6] it was 0.03 mg/L. Further, the “IC80 (neutralization in TZM.bl cells)” value in experiment [1] came to 2.21 mg/L; in experiment [2] it was 1.24 mg/L; in experiment [3], 7.74 mg/L; in experiment [4], 0.136 mg/L; in experiment [5], 3.61 mg/L; in experiment [6], 0.105 mg/L.

B2: MS-96 (antibody)
VH: not shown
VL: DIVLTQSPHSLSVTPGESASISCKSSHSLIHGDRNNYLAWYVQKPGRSPQLLIYLASSRASGVPDRFSGSGSDKDFTLKISRVEAEDVGTYYCMQGRESPWTFGQGTKVDIKRTVAAPSVFIFPPSDEQLKSGTASVVCLLNNFYPREAKVQWKVDNALQSGNSQESVTEQDSKDSTYSLSSTLTLSKADYEKHKVYACEVTHQGLSSPVTKSFNRGEC
Regarding B2, the “IC50 (neutralization in TZM.bl cells)” value in experiment [1] came out at 0.397 mg/L; in experiment [2], 0.252 mg/L; in experiment [3], 3.58 mg/L; in experiment [4], 0.047 mg/L; in experiment [5], 0.543 mg/L; in experiment [6], 0.026 mg/L. In addition, the “IC80 (neutralization in TZM.bl cells)” value amounted to 2.82 mg/L in experiment [1]; 1.14 mg/L in experiment [2]; 13 mg/L in experiment [3]; 0.195 mg/L in experiment [4]; 5.36 mg/L in experiment [5]; 0.093 mg/L in experiment [6].

B3: MS-95 (antibody)
VH: not shown
VL: DIVLTQSPHSLSVTPGESASISCKSSHSLIHGDRNNYLAWYVQKPGRSPQLLIYLASSRASGVPDRFSGSGSGKDFTLKISRVETEDVGTYYCMQGRESPWTFGQGTKVDIKRTVAAPSVFIFPPSDEQLKSGTASVVCLLNNFYPREAKVQWKVDNALQSGNSQESVTEQDSKDSTYSLSSTLTLSKADYEKHKVYACEVTHQGLSSPVTKSFNRGEC
On to B3, for which the “IC50 (neutralization in TZM.bl cells)” value in experiment [1] worked out at 0.433 mg/L; in experiment [2], 0.208 mg/L; in experiment [3], 1.97 mg/L; in experiment [4] it was 0.044 mg/L; in experiment [5] it was 0.567 mg/L; in experiment [6], 0.022 mg/L. In addition, the “IC80 (neutralization in TZM.bl cells)” value in experiment [1] is 2.88 mg/L; in experiment [2], 0.69 mg/L; in experiment [3], 7.07 mg/L; in experiment [4], 0.117 mg/L; in experiment [5], 5.05 mg/L; in experiment [6], 0.06 mg/L.

B4: MS-117 (antibody)
VH: not shown
VL: DFVLTQSPLSLSVTPGEPASISCKSSHSLIHGDRNNYLAWYVQKPGRSPQLLIYLASSRASGVPDRFSGSGSGKDFTLKISRVEAEDVGTYYCMQGRESPWTFGQGTKVDIKRTVAAPSVFIFPPSDEQLKSGTASVVCLLNNFYPREAKVQWKVDNALQSGNSQESVTEQDSKDSTYSLSSTLTLSKADYEKHKVYACEVTHQGLSSPVTKSFNRGEC
For B4, the “IC50 (neutralization in TZM.bl cells)” value amounted to 0.168 mg/L in experiment [1]; 0.201 mg/L in experiment [2]; 1.91 mg/L in experiment [3]; 0.03 mg/L in experiment [4]; 0.206 mg/L in experiment [5]; 0.021 mg/L in experiment [6]. Further, the “IC80 (neutralization in TZM.bl cells)” value in experiment [1] came to 1.33 mg/L; in experiment [2], 0.715 mg/L; in experiment [3], 6.49 mg/L; in experiment [4] it was 0.099 mg/L; in experiment [5] it was 1.73 mg/L; in experiment [6], 0.057 mg/L.

B5: MS-94 (antibody)
VH: not shown
VL: DIVLTQSPHSLSVTPGEPASISCKSSHSLIHGDRNNYLAWYVQKPGRSPQLLIYLASSRASGVPDRFSGSGSDKDFTLKISRVETEDVGTYYCMQGRESPWTFGQGTKVDIKRTVAAPSVFIFPPSDEQLKSGTASVVCLLNNFYPREAKVQWKVDNALQSGNSQESVTEQDSKDSTYSLSSTLTLSKADYEKHKVYACEVTHQGLSSPVTKSFNRGEC
In the case of B5, the “IC50 (neutralization in TZM.bl cells)” value in experiment [1] turned out to be 0.315 mg/L; in experiment [2], 0.358 mg/L; in experiment [3], 3.03 mg/L; in experiment [4], 0.055 mg/L; in experiment [5] it was 0.455 mg/L; in experiment [6], 0.027 mg/L. Moreover, the “IC80 (neutralization in TZM.bl cells)” value in experiment [1] is 1.23 mg/L; in experiment [2] it was 0.985 mg/L; in experiment [3] it was 11.2 mg/L; in experiment [4] it was 0.146 mg/L; in experiment [5] it was 5.18 mg/L; in experiment [6] it was 0.095 mg/L.

B6: MS-118 (antibody)
VH: not shown
VL: DIVLTQSPLSLSVTPGEPASISCKSSHSLIHGDRNNYLAWYVQKPGRSPQLLIYLASSRASGVPDRFSGSGSGKDFTLKISRVEAEDVGTYYCMQGRESPWTFGQGTKVDIKRTVAAPSVFIFPPSDEQLKSGTASVVCLLNNFYPREAKVQWKVDNALQSGNSQESVTEQDSKDSTYSLSSTLTLSKADYEKHKVYACEVTHQGLSSPVTKSFNRGEC
In the case of B6, the “IC50 (neutralization in TZM.bl cells)” value in experiment [1] amounted to 0.244 mg/L; in experiment [2] it was 0.164 mg/L; in experiment [3], 2.12 mg/L; in experiment [4], 0.036 mg/L; in experiment [5], 0.42 mg/L; in experiment [6], 0.019 mg/L. Moreover, the “IC80 (neutralization in TZM.bl cells)” value in experiment [1] stood at 2.05 mg/L; in experiment [2], 0.785 mg/L; in experiment [3], 8.29 mg/L; in experiment [4] it was 0.117 mg/L; in experiment [5], 3.4 mg/L; in experiment [6], 0.069 mg/L.

B7: MS-115 (antibody)
VH: not shown
VL: DIVLTQSPLSLSVTPGESASISCKSSHSLIHGDRNNYLAWYVQKPGRSPQLLIYLASSRASGVPDRFSGSGSGKDFTLKISRVEAEDVGTYYCMQGRESPWTFGQGTKVDIKRTVAAPSVFIFPPSDEQLKSGTASVVCLLNNFYPREAKVQWKVDNALQSGNSQESVTEQDSKDSTYSLSSTLTLSKADYEKHKVYACEVTHQGLSSPVTKSFNRGEC
Consider B7, for which the “IC50 (neutralization in TZM.bl cells)” value turned out to be 0.202 mg/L in experiment [1]; 0.237 mg/L in experiment [2]; 1.83 mg/L in experiment [3]; 0.024 mg/L in experiment [4]; 0.489 mg/L in experiment [5]; 0.025 mg/L in experiment [6]. The “IC80 (neutralization in TZM.bl cells)” value in experiment [1] came out at 1.03 mg/L; in experiment [2], 0.647 mg/L; in experiment [3] it was 5.04 mg/L; in experiment [4], 0.106 mg/L; in experiment [5] it was 5.46 mg/L; in experiment [6] it was 0.067 mg/L.

B8: MS-116 (antibody)
VH: not shown
VL: DIVLTQSPHSLSVTPGEPASISCKSSHSLIHGDRNNYLAWYVQKPGRSPQLLIYLASSRASGVPDRFSGSGSGKDFTLKISRVEAEDVGTYYCMQGRESPWTFGQGTKVDIKRTVAAPSVFIFPPSDEQLKSGTASVVCLLNNFYPREAKVQWKVDNALQSGNSQESVTEQDSKDSTYSLSSTLTLSKADYEKHKVYACEVTHQGLSSPVTKSFNRGEC
B8: the “IC50 (neutralization in TZM.bl cells)” value in experiment [1] came to 0.185 mg/L; in experiment [2], 0.187 mg/L; in experiment [3], 1.97 mg/L; in experiment [4] it was 0.03 mg/L; in experiment [5] it was 0.321 mg/L; in experiment [6], 0.024 mg/L. Also, the “IC80 (neutralization in TZM.bl cells)” value in experiment [1] worked out at 1.06 mg/L; in experiment [2] it was 0.663 mg/L; in experiment [3], 6.71 mg/L; in experiment [4], 0.139 mg/L; in experiment [5], 3.09 mg/L; in experiment [6], 0.067 mg/L.

B9: MS-93 (antibody)
VH: not shown
VL: DIVLTQSPLSLSVTPGESASISCKSSHSLIHGDRNNYLAWYVQKPGRSPQLLIYLASSRASGVPDRFSGSGSDKDFTLKISRVETEDVGTYYCMQGRESPWTFGQGTKVDIKRTVAAPSVFIFPPSDEQLKSGTASVVCLLNNFYPREAKVQWKVDNALQSGNSQESVTEQDSKDSTYSLSSTLTLSKADYEKHKVYACEVTHQGLSSPVTKSFNRGEC
For the molecule B9, the “IC50 (neutralization in TZM.bl cells)” value was 0.333 mg/L in experiment [1]; 0.358 mg/L in experiment [2]; 3.24 mg/L in experiment [3]; 0.034 mg/L in experiment [4]; 0.636 mg/L in experiment [5]; 0.034 mg/L in experiment [6]. Besides, the “IC80 (neutralization in TZM.bl cells)” value in experiment [1] is 2.71 mg/L; in experiment [2], 1.6 mg/L; in experiment [3] it was 9.14 mg/L; in experiment [4], 0.118 mg/L; in experiment [5], 5.6 mg/L; in experiment [6], 0.116 mg/L.
